The DeepSol protein solubility set

Test: soluble on expression in E. coli; label from the status in PepcDB or PDB records

Row | Sequence | soluble on expression in E. coli
1 | MANSITADEIREQFSQAMSAMYQQEVPQYGTLLELVADVNLAVLENNPQLHEKMVNADELARLNVERHGAIRVGTAQELATLRRMFAIMGMYPVSYYDLSQAGVPVHSTAFRPIDDASLARNPFRVFTSLLRLELIENEILRQKAAEILRQRDIFTPRCRQLLEEYEQQGGFNETQAQEFVQEALETFRWHQSATVDEETYRALHNEHRLIADVVCFPGCHINHLTPRTLDIDRVQSMMPECGIEPKILIEGPPRREVPILLRQTSFKALEETVLFAGQKQGTHTARFGEIEQRGVALTPKGRQLYDDLLRNAGTGQDNLTHQMHLQETFRTFPDSEFLMRQQGLAWFRYRLTPSGEAHRQAIHPGDDPQPLIERGWVVAQPITYEDFLPVSAAGIFQSNLGNETQTRSHGNASREAFEQALGCPVLDEFQLYQEAEERSKRRCGLL | not soluble
2 | MEKILIFGHQNPDTDTICSAIAYADLKNKLGFNAEPVRLGQVNGETQYALDYFKQESPRLVETAANEVNGVILVDHNERQQSIKDIEEVQVLEVIDHHRIANFETAEPLYYRAEPVGCTATILNKMYKENNVKIEKEIAGLMLSAIISDSLLFKSPTCTDQDVAAAKELAEIAGVDAEEYGLNMLKAGADLSKKTVEELISLDAKEFTLGSKKVEIAQVNTVDIEDVKKRQAELEAVISKVVAEKNLDLFLLVITDILENDSLALAIGNEAAKVEKAFNVTLENNTALLKGVVSRKKQVVPVLTDAMAE | soluble
3 | MAHHHHHHMDVLGTCTALVATLQEPQEDIQSRDHYELVLLDGPSLPIVGVSSTGGLLAATSAASAAAAATAAVAAADDTMSSTEAAKESASDSDAAVTRVKTTIDLHQAFARFQRTDSAENYLLDVVYVGDCTMMLIRNGRVCYVTEEQAHQLDYPYQLGTGSNDTPKDGVRLLIPVEKGDIVVMGTDGIFDNLYPHRIVELIWPHLERVFSQHGYLQALGGAETAKAPANAVSYVKNRNLRTLLDDIMAALDMGANAVMADAMTVSRDVRCDSPYASKCIENGALFEGGKPDDMTLLISVIGESDDGEPSEQFSGSETAFPLPYRDWP | not soluble
4 | MPKKVVPEEARRRRRPTRQGAVLSEGLIVRTALRMLREHGTGGLTARRLGAALGADPSTLYRYFAGMDDLARAVGNELMGQALDGWTAQGDWRADLRSLGLALHSSYLAHPQAAVLTASRVSGRPREIAVDEAILGLLRGAGLTDRAAVRFYHAFIDLALAFAALDAGSLALPEEARRSDEDMWGTTYARLPAETHPNIAATAERLAARMPHSAYPVVLDTLLDGIAAELTGTAPEM | not soluble
5 | MGSDKIHHHHHHMNHNLTTLHPYPFAKMATLLADSTPAHSYDEIKLGIGEPKHAPPAFVLDVLRENLDKISHYPTTNGLFELRQTIAHWLEKRFFLNHVNPNTQVLPVMGTREAIFSIVQAVINHQTETISQTATLNQSPVVVMPNPFYQIYEGAAILAQATPYFIPCTADNGFKGDFRSVPKDVWMRTQLLFVCSPNNPTGSVMTMDDWEQLLRLSDQYGFIIASDECYSELYFDKAPIGLLQACAALGRHDFKNCLVFHSLSKRSNLPGLRSGFVAGDATILDSYLQYRTYQGCAMPIPHQLASIAAWEDEKHVAHNRALYQEKFALWMSELGALLDLRMPEAGFYFWIKAPEQFDGDDELFVKALYEHANIHALAGRYLSREVNGKNPGQGYVRIALVASVEESREAIRRIRQLLGA | not soluble
6 | MDRIPFGIRQLDSIINGGAPAGSVVLLSGEAGAGSREFMHTSALINGLEQVDTELHDLYYGDRSPDAVAPDEVHYISFTTNESQLVSEMRLAMDDDVVDKGSRAVEFHDLSERYFHISPVPREWYASETASITDLRARHEREDLLGTLGMVLNEVAANNLVVIDSLSDLVSAMGEEIEWSDISSLVQGLQKAAHQWGCLLLLHINPETLSTVRHGQLVDASHGTMEFAWESGGSTRARTLVVQQFRGVLSQIEDEDIVQFETELGDAGFDISDVRKIRLEHHHHHH | not soluble
7 | MFQRKTLQRRNLKGLNLNLHPDVGNNGQLQEKTETHQGQSRIEGHVMSNINAIQNNSNLFLRRGIKKKLTLDAFGDDQAISKPNTVVIQQPQNEPVLVLSSLSQSPCVSSSSSLSTPCIIDAYSNNFGLSPSSTNSTPSTIQGLSNIATPVENEHSISLPPLEESLSPAAADLKDTLSGTSNGNYIQLQDLVQLGKIGAGNSGTVVKALHVPDSKIVAKKTIPVEQNNSTIINQLVRELSIVKNVKPHENIITFYGAYYNQHINNEIIILMEYSDCGSLDKILSVYKRFVQRGTVSSKKTWFNELTISKIAYGVLNGLDHLYRQYKIIHRDIKPSNVLINSKGQIKLCDFGVSKKLINSIADTFVGTSTYMSPERIQGNVYSIKGDVWSLGLMIIELVTGEFPLGGHNDTPDGILDLLQRIVNEPSPRLPKDRIYSKEMTDFVNRCCIKNERERSSIHELLHHDLIMKYVSPSKDDKFRHWCRKIKSKIKEDKRIKREALDRAKLEKKQSERSTH | not soluble
8 | MSLNEHKHNYNMKINCLLALALSASSLAAQDAVIRVDAGKVENKITPYLYGACMEDVNHEIYGGLYDQKIFGESFEEPVSMDNFIGFTRCEGVWKLQDGQLSVQAHPGAKLVYDDTQLSDGTVGVDLKFTNGTSSSNNAGLLLRVGEYGGGADNFDGYEVSLFADGKRLLLGKHLHNWQELKTTPVDVDPMQWNRMEVKLDGDELVILLNDCEVLRFEDRDTGLRNGKVAFRNWGADVSYRSLTIGSNTPVKLLTKATPQVSGMWDAFADLTAAAVYKQIADKPFHGRYAQEIEYLVGTGKVGIANRSLNRWGISVRQGEKKTGSLYLKGKAEVRVALQSVDGEKEYAVQCIRANAGDWKKYTFELTPDKTDENARLAIYLEEKGRIQVDMVTLMNGADRQFCGLPLRNDIGQAMVDQGLRFLRYGGTMVNAPEYRFKKMIGDRAERPPYKGHWYTYSTNGFGIEDFLHFCEKAGFMPAYAVNVEESAQDMADMIEYLNGSVDTKWGKKRAENGHPEPYGLKYLEIGNEEVIWGDIEADYQHYIDRFNDIYEAVHAKDPEVQFIHSAWWRPESPNMEKVFKALDGKAAYWDYHPWTDDLGSHVNIDRELTDMKAKFLKWNPKTSMRCAIFEENGNLHNVQRAIVHATVQNVVRRHGDFILTTCAANALQPYLQNDNGWDQGQIFFTSGQVWGMPTFYAQQMSSAHHHPLRLWSETVGELDMTATTNEARDEVILHVVNTSSEVRETQVSLSGFIPKGNMEIYTLSGELNDENLPDTPTWILPKATWKQAPGSDFTYSFPGYSYTIVVLKEGHHHHHH | soluble
9 | MRGSVAALLLAAGRSIRMGRCKQLLPLGNTTVLGRCLDTLRRGGVGEIAVVVSADGEQVARAAAGHGVRVVVNPDREGDMASSVRAGRDAFGSAVGGVIVSLCDQPLVAAGTVARLRDRHATEPGRIIIPTHGGRRGHPLLFPLPVLAELEDGLTLRDLVVCDPARVCCVAVADPGILIDMDTPEDYRHVCRLMAPQEGLSLRLEHHHHHH | not soluble
10 | MSRLLLVWDAPNLDMGLGALLGGRPTTAHRPRFDAVGRWLLAKAGELAHTTGSKVESEATVFANVVPGSADSIRSWVEALRNVGFAVFAKPKLRDDTDVDPDMLAHIRKRFEEGDLAGVIVASADGRNFQETLDELASAGVAITVIGFHEHATWALADDRITFVDLEEIPGVFREPLPRVSLDNLPEEGAWLKPIRPLSALLSKSK | not soluble
11 | RGGSFAKSWRPMTMSYANLSVDKVEHRALVLNTPYSIIRTIGKQGLEEKRFYASEKELEQVFNPIHHLATDTTARFSQLRGRNVMVIIIESFARQYVGRLNQDIPDYKGYTPCFDSISQKGYLFEQAFANGRKSIDAMPSILSSLPSLRSHFITSHYSGNEIEGLGTALGRIGYQSIFLHGAPNGSMGFDAFVKQAGYKRYFGKTEYAHDEDFDGVWGIWDEPFLLHAVDELSRMKQPFVGTLFTLSSHEPFHIPSHREGLFPNEGEPLVQCIGYTDHALGEFFRKASRQTWFENTLFVITADHASGDLRPEYRSAVGR | not soluble
12 | FLSTRDNVDELRKIENKSSFVSADNMPEYVKGAFISMEDERFYNHHGFDLKGTTRALFSTISDRDVQGGSTITQQVVKNYFYDNDRSFTRKVKELFVAHRVEKQYNKNEILSFYLNNIYFGDNQYTLEGAANHYFGTTVNKNSTTMSHITVLQSAILASKVNAPSVYNINN | not soluble
13 | MTHSQQSMVDTFRASLFDNQDITVADQQIQALPYSTMYLRLNEGQRIFVVLGYIEQEQSKWLSQDNAMLVTHNGRLLKTVKLNNNLLEVTNSGQDPLRNALAIKDGSRWTRDILWSEDNHFRSATLSSTFSFAGLETLNIAGRNVLCNVWQEEVTSTRPEKQWQNTFWVDSATGQVRQSRQMLGAGVIPVEMTFLKPAPLEHHHHHH | soluble
14 | MALTCTDMSDAVAGSDAEGLTADAIVVGAGLAGLVAACELADRGLRVLILDQENRANVGGQAFWSFGGLFLVNSPEQRRLGIRDSHELALQDWLGTAAFDRPEDYWPEQWAHAYVDFAAGEKRSWLRARGLKIFRWWAGPSVVVTTRRGTATRCPVSTSPGVLGRLWSTYSCVSCVIAPRCALRTATRSTNLEHHHHHH | not soluble
15 | GASTRDYEIQRERIELGRCIGEGQFGDVHQGIYMSPENPALAVAIKTCKNCTSDSVREKFLQEALTMRQFDHPHIVKLIGVITENPVWIIMELCTLGELRSFLQVRKYSLDLASLILYAYQLSTALAYLESKRFVHRDIAARNVLVSSNDCVKLGDFGLSRYMEDSTYYKASKGKLPIKWMAPESINFRRFTSASDVWMFGVCMWEILMHGVKPFQGVKNNDVIGRIENGERLPMPPNCPPTLYSLMTKCWAYDPSRRPRFTELKAQLSTILEEEKAQQEE | soluble
16 | SAAPMSNVDEIRDRVILGEFGVKNVHTTDYPGNYPGYDDTWDFEKFKKNFRIEIISSDENTLEFDMIGIDAAIANAFRRILLAEVPTMAIEKVFIYNNTSIIQDEILAHRLGLVPIKADPRLFEYRNSEDQEGTEIDTIQLQLKVKCTRNPRAPKDSSDPKELYLNHMIYSGDIKWLPIGNQADVFADAKIGPVHGDILLAQVRPGQELDIVMHCVKGIGKDHAKFSPVATASYRLLPEITLLQTIEGEQAERLKRCFSPGVIELENVNGRKVAKVVNSRLDTCSREVLRHDDLKSLVKLGRVRDHFIFSVESTGILPPDVLVTEAINVLMSKCQKFLTELEATEMD | soluble
17 | MSLALRLIERDPYEHPERLRQLQQELEAFRGQLGDVGALDTVWRELQDAQEHDARGRSIAIARCYSLKNRHQDVMPYDSNRVVLRSGKDDYINASCVEGLSPYCPPLVATQAPLPGTAADFWLMVHEQKVSVIVMLVSEAEMEKQKVARYFPTERGQPMVHGALSLALSSVRSTETHVERVLSLQFRDQSLKRSLVHLHFPTWPELGLPDSPSNLLRFIQEVHAHYLHQRPLHTPIIVHCSSGVGRTGAFALLYAAVQEVEAGNGIPELPQLVRRMRQQRKHMLQEKLHLRFCYEAVVRHVEQVLQRHGEGHHHHHH | soluble
18 | MSLIITRTPLRITFVGGGTDLPDFYTRHGGSVVSAAINRYIYIIVNKKFDSKIRVSYSRTEIVDKVDEIRHPTVREALRLLELDGGIEILSISDVPSQGTGLGSSSSFLVGLLNALHAYKSEYVSNETLAEEAVKIEREILREAGGKQDQYMAAYGGIDLLQFFQNGEVRVKPIPLNTERLKYLRDNTALLYTGVERSSTDIHTDQISKIDDHIQEYLEMKKLAEEFAVKLYASDIKELGEIMDRNWMLKRKLSGKITNDLIDRLYIRAKELGAYGGKLIGAGGGGFLLFFIDHNKRENLKELGLRQMDYDFDFEGSRIIYYQDREGHHHHHH | soluble
